The values below come from patent publication US20030032096A1 (US Dept. of Health and Human Services, published 2003).

One test has as its target rat PTH2 receptor (rat, UniProt P70555 25-546). Briefly: cell-based or functional assay.
The target of a further test is T1, human glucagon receptor (human, UniProt P47871 26-477).
T1 construct: whole, on cells
Briefly: displacement of [125I]glucagon, intact COS-7 cells. For orientation: In a radioligand displacement assay an active substance lowers the binding of a labelled ligand.

T1 sequence (P47871 26-477): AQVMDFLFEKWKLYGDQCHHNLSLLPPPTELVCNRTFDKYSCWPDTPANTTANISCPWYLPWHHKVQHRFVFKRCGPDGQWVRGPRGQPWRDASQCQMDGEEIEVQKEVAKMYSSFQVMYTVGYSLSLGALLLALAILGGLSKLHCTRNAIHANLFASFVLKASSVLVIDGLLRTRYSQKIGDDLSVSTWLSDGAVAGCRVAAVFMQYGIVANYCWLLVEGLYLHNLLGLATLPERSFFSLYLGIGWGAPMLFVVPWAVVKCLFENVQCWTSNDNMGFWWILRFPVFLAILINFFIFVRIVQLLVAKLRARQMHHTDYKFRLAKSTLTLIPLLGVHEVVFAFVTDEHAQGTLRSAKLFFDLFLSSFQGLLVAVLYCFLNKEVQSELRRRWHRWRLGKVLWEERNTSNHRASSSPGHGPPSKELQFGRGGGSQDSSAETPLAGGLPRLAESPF
Sequence of rat PTH2 receptor (P70555 25-546): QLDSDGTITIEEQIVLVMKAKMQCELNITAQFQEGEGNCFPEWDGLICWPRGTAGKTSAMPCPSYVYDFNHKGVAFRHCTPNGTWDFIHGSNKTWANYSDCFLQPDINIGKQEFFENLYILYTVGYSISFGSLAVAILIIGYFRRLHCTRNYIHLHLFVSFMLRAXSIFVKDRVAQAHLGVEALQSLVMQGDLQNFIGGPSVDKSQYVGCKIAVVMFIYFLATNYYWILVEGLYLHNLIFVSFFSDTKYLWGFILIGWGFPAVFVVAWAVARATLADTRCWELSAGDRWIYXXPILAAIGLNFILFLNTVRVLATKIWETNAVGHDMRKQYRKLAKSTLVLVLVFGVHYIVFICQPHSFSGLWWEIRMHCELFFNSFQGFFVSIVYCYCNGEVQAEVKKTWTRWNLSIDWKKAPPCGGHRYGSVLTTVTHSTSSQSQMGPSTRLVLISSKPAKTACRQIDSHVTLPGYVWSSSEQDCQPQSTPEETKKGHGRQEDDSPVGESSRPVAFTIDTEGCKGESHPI

B1: tuberinfundibular peptide of 39 residues (TIP39), bovine sequence, synthetic (peptide)
peptide: SLALADDAAFRERARLLAALERRHWLNSYMHKLLVLDAP
notes: Chemically synthesized 39 residue peptide (Anaspec or Biomolecules Midwest); also called bTIP39; synthetic hypothalamic peptide
For B1, in the test with rat PTH2 receptor, the “maximal effect against PTH” value was ~3 fold. Besides, the binding result with human glucagon receptor is listed as “no binding (tested: 1 µM)”.
